B1: Coronatine-insensitive protein 1 (Arabidopsis thaliana (Mouse-ear cress)), O04197 (parent)
chain: MEDPDIKRCKLSCVATVDDVIEQVMTYITDPKDRDSASLVCRRWFKIDSETREHVTMALCYTATPDRLSRRFPNLRSLKLKGKPRAAMFNLIPENWGGYVTPWVTEISNNLRQLKSVHFRRMIVSDLDLDRLAKARADDLETLKLDKCSGFTTDGLLSIVTHCRKIKTLLMEESSFSEKDGKWLHELAQHNTSLEVLNFYMTEFAKISPKDLETIARNCRSLVSVKVGDFEILELVGFFKAAANLEEFCGGSLNEDIGMPEKYMNLVFPRKLCRLGLSYMGPNEMPILFPFAAQIRKLDLLYALLETEDHCTLIQKCPNLEVLETRNVIGDRGLEVLAQYCKQLKRLRIERGADEQGMEDEEGLVSQRGLIALAQGCQELEYMAVYVSDITNESLESIGTYLKNLCDFRLVLLDREERITDLPLDNGVRSLLIGCKKLRRFAFYLRQGGLTDLGLSYIGQYSPNVRWMLLGYVGESDEGLMEFSRGCPNLQKLEMRGCCFSERAIAAAVTKLPSLRYLWVQGYRASMTGQDLMQMARPYWNIELIPSRRVPEVNQQGEIREMEHPAHILAYYSLAGQRTDCPTTVRVLKEPI
partner: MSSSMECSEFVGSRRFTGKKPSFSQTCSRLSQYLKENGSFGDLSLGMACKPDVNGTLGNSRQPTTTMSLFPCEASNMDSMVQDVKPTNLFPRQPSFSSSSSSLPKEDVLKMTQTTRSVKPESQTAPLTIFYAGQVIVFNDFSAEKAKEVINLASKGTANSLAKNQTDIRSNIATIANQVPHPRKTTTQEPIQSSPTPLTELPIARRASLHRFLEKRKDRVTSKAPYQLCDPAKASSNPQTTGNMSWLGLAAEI

Variants of: B1
Details: with ti10a_arath TIFY10A

Effect of a mutation on the interaction, disrupting interaction:
R326A
R351A
R85A
M88A
L301A
R348A
Y386A
R409A
R496A
L469A
Y444A
F89A
Y302A
R121A
